Positions count from the first letter of the chain named.
B1: TY29309 (bispecific antibody, human IgG1, kappa, N297A)
light: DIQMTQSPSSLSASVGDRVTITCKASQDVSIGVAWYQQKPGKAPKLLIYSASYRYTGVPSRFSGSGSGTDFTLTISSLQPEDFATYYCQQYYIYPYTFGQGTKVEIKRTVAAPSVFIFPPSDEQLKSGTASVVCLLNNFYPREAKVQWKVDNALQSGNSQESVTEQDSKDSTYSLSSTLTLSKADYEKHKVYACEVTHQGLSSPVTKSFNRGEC
heavy: EVQLVESGGGLVQPGGSLRLSCAASGFTFTDYTMDWVRQAPGKGLEWVADVNPNSGGSIYNQRFKGRFTLSVDRSKNTLYLQMNSLRAEDTAVYYCARNLGPSFYFDYWGQGTLVTVSSASTKGPSVFPLAPSSKSTSGGTAALGCLVKDYFPEPVTVSWNSGALTSGVHTFPAVLQSSGLYSLSSVVTVPSSSLGTQTYICNVNHKPSNTKVDKKVEPKSCDKTHTCPPCPAPELLGGPSVFLFPPKPKDTLMISRTPEVTCVVVDVSHEDPEVKFNWYVDGVEVHNAKTKPREEQYASTYRVVSVLTVLHQDWLNGKEYKCKVSNKALPAPIEKTISKAKGQPREPQVYTLPPSRKKLTKNQVKLTCLVKGFYPSDIAVEWESNGQPENNYKTTPPVLDCDGSFFLYSKLTVDKSRWQQGNVFSCSVMHEALHNHYTQKSLSLSPGK
chain: EVQLVESGGGLVQPGGSLRLSCAASGFSLSTSGVGVSWIRQAPGKGLEWIGSIYHSGSTYYNPSLKSRVTISRDNSKNTLYLQLNSLRAEDTAVYYCARYEYDYYAFDYWGQGTLVTVSSGGGGSGGGGSGGGGSGGGGSDIQLTQSPSSLSASVGDRVTITCRASQSVDFYGISFLHWYQQKPGKAPKLLIYAASSLQSGVPSRFSGSGSGTDFTLTISSLQPEDFATYYCQQSYRTPRTFGQGTKVEIKEPKSSDKTHTCPPCPAPELLGGPSVFLFPPKPKDTLMISRTPEVTCVVVDVSHEDPEVKFNWYVDGVEVHNAKTKPREEQYASTYRVVSVLTVLHQDWLNGKEYKCKVSNKALPAPIEKTISKAKGQPREPQVYTDPPSRDELTKNQVSLTCLVDGFYPSDIAVEWESNGQPENCYKTTPPVLDSDGSFFLYSKLTVDKSRWQQGNVFSCSVMHEALHNHYTQDSLSLSPGK
notes: anti-HER2 Fab x CD28 scFv BC8233 (VH-VL)-Fc
B2: TY29308 (bispecific antibody, human IgG1, kappa, N297A)
light: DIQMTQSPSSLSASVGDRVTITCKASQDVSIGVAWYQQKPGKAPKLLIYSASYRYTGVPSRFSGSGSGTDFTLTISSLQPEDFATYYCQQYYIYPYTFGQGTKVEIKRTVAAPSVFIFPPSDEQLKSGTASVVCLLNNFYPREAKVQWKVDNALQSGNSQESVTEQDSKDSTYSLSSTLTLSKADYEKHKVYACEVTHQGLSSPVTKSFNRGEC
heavy: B1 heavy
chain: B1 chain with D103G, I174K, R240L
notes: anti-HER2 Fab x CD28 scFv BC8230 (VH-VL)-Fc
B3: TY28659 (bispecific antibody, human IgG1, kappa, N297A)
light: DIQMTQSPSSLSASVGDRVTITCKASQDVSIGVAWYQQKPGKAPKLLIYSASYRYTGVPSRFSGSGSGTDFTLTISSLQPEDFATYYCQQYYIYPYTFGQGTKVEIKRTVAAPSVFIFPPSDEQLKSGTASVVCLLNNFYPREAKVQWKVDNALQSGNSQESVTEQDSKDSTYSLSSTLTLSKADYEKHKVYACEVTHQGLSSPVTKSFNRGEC
heavy: B1 heavy
chain: DIQLTQSPSSLSASVGDRVTITCRASQSVDFHGISFLHWYQQKPGKAPKLLIYAASSLQSGVPSRFSGSGSGTDFTLTISSLQPEDFATYYCQQSYRSPRTFGQGTKVEIKGGGGSGGGGSGGGGSGGGGSEVQLVESGGGLVQPGGSLRLSCAASGFSLSTSGVGVSWIRQAPGKGLEWIGEIYHSGSTYYNPSLKSRVTISRDNSKNTLYLQLNSLRAEDTAVYYCARYEYGYYAFDYWGQGTLVTVSSEPKSSDKTHTCPPCPAPELLGGPSVFLFPPKPKDTLMISRTPEVTCVVVDVSHEDPEVKFNWYVDGVEVHNAKTKPREEQYASTYRVVSVLTVLHQDWLNGKEYKCKVSNKALPAPIEKTISKAKGQPREPQVYTDPPSRDELTKNQVSLTCLVDGFYPSDIAVEWESNGQPENCYKTTPPVLDSDGSFFLYSKLTVDKSRWQQGNVFSCSVMHEALHNHYTQDSLSLSPGK
notes: anti-HER2 Fab x CD28 scFv BC8242 (VL-VH)-Fc
B4: TY28654 (bispecific antibody, human IgG1, kappa, N297A)
light: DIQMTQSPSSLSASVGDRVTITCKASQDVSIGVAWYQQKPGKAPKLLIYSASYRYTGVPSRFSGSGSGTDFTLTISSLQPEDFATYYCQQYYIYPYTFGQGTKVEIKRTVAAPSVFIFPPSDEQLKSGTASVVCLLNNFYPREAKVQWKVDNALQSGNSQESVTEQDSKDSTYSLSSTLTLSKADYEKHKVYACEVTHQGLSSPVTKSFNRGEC
heavy: B1 heavy
chain: B3 chain with H32Y, I34K, S98T, R100L, E183S
notes: anti-HER2 Fab x CD28 scFv BC8230 (VL-VH)-Fc
B5: TY29307 (bispecific antibody, human IgG1, kappa, N297A)
light: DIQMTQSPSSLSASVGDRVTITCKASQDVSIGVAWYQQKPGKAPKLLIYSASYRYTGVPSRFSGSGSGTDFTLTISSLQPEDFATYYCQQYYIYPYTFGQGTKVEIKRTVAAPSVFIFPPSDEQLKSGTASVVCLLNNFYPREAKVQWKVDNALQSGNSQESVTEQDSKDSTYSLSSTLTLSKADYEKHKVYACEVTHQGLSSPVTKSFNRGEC
heavy: B1 heavy
chain: B1 chain with S32G, D103G, F107L, R240P
notes: anti-HER2 Fab x CD28 scFv BC8228 (VH-VL)-Fc
B6: TY29313 (bispecific antibody, human IgG1, kappa, N297A)
light: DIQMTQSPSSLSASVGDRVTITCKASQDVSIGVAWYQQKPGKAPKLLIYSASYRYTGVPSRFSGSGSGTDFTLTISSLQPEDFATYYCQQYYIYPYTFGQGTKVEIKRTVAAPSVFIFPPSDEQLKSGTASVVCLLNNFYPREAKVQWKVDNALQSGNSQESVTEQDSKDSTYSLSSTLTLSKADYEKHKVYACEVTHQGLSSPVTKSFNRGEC
heavy: B1 heavy
chain: B1 chain with S52E, D103G, Y172H, T238S
notes: anti-HER2 Fab x CD28 scFv BC8242 (VH-VL)-Fc
B7: TY28655 (bispecific antibody, human IgG1, kappa, N297A)
light: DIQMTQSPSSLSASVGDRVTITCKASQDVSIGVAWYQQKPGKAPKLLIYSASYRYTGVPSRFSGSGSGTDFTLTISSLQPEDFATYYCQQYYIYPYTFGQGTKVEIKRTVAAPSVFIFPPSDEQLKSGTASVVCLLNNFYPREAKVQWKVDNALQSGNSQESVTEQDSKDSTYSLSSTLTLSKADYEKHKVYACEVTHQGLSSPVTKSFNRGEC
heavy: B1 heavy
chain: B3 chain with H32Y, S98T, E183S, G234D
notes: anti-HER2 Fab x CD28 scFv BC8233 (VL-VH)-Fc
B8: TY29311 (bispecific antibody, human IgG1, kappa, N297A)
light: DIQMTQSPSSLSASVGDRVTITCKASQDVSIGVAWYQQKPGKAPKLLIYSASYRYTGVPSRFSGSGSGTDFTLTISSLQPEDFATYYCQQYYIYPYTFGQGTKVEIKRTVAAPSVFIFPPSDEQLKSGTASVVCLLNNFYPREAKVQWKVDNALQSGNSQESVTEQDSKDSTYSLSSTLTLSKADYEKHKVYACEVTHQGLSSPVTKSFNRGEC
heavy: B1 heavy
chain: B1 chain with S32G, S37G, S52E, D103G, Y172H, Q199E
notes: anti-HER2 Fab x CD28 scFv BC8237 (VH-VL)-Fc
B9: TY28657 (bispecific antibody, human IgG1, kappa, N297A)
light: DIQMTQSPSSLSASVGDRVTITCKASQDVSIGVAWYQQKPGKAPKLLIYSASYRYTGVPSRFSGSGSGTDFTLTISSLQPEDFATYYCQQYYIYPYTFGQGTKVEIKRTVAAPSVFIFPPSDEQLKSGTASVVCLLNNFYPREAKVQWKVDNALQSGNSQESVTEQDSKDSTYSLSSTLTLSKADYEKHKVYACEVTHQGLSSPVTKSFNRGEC
heavy: B1 heavy
chain: B3 chain with Q59E, S98T, S163G, S168G
notes: anti-HER2 Fab x CD28 scFv BC8237 (VL-VH)-Fc
B10: TY28661 (bispecific antibody, human IgG1, kappa, N297A)
light: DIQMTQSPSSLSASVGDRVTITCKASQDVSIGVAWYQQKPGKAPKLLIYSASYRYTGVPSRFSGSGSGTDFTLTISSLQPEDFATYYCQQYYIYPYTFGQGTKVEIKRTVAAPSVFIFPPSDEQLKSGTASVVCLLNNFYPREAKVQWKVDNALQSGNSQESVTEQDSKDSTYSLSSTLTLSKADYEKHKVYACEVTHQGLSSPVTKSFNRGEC
heavy: B1 heavy
chain: B3 chain with H32Y, Q59E, S98T, R100L, S163G, E183S, N193S, G234D
notes: anti-HER2 Fab x CD28 scFv BC8263 (VL-VH)-Fc
B11: TY29306 (bispecific antibody, human IgG1, kappa, N297A)
light: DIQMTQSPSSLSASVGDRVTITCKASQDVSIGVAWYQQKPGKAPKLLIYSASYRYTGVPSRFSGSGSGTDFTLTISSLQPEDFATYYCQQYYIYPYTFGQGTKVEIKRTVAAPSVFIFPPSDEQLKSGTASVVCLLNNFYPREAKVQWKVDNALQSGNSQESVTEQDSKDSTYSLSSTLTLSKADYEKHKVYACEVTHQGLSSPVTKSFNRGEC
heavy: B1 heavy
chain: B1 chain with S32G, I174K, Q199E, T238S, R240P
notes: anti-HER2 Fab x CD28 scFv BC8227 (VH-VL)-Fc
B12: TY28653 (bispecific antibody, human IgG1, kappa, N297A)
light: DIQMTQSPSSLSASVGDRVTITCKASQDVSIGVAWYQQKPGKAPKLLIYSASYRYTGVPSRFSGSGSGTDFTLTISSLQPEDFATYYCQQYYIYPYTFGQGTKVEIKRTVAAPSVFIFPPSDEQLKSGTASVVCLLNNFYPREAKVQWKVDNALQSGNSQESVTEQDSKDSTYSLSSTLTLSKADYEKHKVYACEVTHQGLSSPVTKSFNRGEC
heavy: B1 heavy
chain: B3 chain with H32Y, S98T, R100P, S163G, E183S, F238L
notes: anti-HER2 Fab x CD28 scFv BC8228 (VL-VH)-Fc
B13: TY29315 (bispecific antibody, human IgG1, kappa, N297A)
light: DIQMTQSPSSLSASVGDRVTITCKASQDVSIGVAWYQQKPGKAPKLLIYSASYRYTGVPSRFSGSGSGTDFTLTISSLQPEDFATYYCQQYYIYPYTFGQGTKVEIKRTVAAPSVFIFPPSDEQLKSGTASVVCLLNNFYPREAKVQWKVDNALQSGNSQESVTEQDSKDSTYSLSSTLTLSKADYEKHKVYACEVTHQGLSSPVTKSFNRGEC
heavy: B1 heavy
chain: B1 chain with S32G, N62S, Q199E, R240L
notes: anti-HER2 Fab x CD28 scFv BC8263 (VH-VL)-Fc
B14: TY29312 (bispecific antibody, human IgG1, kappa, N297A)
light: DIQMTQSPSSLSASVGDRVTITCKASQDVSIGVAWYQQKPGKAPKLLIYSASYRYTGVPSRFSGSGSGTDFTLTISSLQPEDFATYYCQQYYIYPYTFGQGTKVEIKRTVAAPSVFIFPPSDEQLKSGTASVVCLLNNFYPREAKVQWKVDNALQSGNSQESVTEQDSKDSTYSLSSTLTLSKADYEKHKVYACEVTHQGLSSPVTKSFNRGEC
heavy: B1 heavy
chain: B1 chain with S37G, A106D, I174K, Q199E, T238S, R240L
notes: anti-HER2 Fab x CD28 scFv BC8240 (VH-VL)-Fc

Target: Human CD28 (ELISAs of Examples 4 and 13) (human, UniProt P10747 19-152, limits assumed)
Experiment: ELISA

Row | Binder | EC50
1 | B1 | 27.7 nM
2 | B2 | 417 nM
3 | B3 | 0.954 nM
4 | B4 | 68.4 nM
5 | B5 | 27.8 nM
6 | B6 | 6.97 nM
7 | B7 | 8.14 nM
8 | B8 | 91.3 nM
9 | B9 | 5.29 nM
10 | B10 | 52.6 nM
11 | B11 | 9.27 nM
12 | B12 | 7.3 nM
13 | B13 | 291 nM
14 | B14 | 624 nM

From patent US20250257133A1 (ADAGENE PTE, published 2025)
